Measurements from PMC11065870.

What was measured:
[1] = native MS, super-dimer vs heterodimer abundance; conditions: glycan changed form; control: fully glycosylated WT
[2] = mass photometry in GDN, super-dimer/heterodimer ratio; conditions: glycan changed form; control: fully sialylated WT

B1: 4F2hc (4F2 cell-surface antigen heavy chain): neuraminidase (desialylated) (protein)
parent chain: MELQPPEASIAVVSIPRQLPGSHSEAGVQGLSAGDDSELGSHCVAQTGLELLASGDPLPSASQNAEMIETGSDCVTQAGLQLLASSDPPALASKNAEVTGTMSQDTEVDMKEVELNELEPEKQPMNAASGAAMSLAGAEKNGLVKIKVAEDEAEAAAAAKFTGLSKEELLKVAGSPGWVRTRWALLLLFWLGWLGMLAGAVVIIVRAPRCRELPAQKWWHTGALYRIGDLQAFQGHGAGNLAGLKGRLDYLSSLKVKGLVLGPIHKNQKDDVAQTDLLQIDPNFGSKEDFDSLLQSAKKKSIRVILDLTPNYRGENSWFSTQVDTVATKVKDALEFWLQAGVDGFQVRDIENLKDASSFLAEWQNITKGFSEDRLLIAGTNSSDLQQILSLLESNKDLLLTSSYLSDSGSTGEHTKSLVTQYLNATGNRWCSWSLSQARLLTSFLPAQLLRLYQLMLFTLPGTPVFSYGDEIGLDAAALPGQPMEAPVMLWDESSFPDIPGAVSANMTVKGQSEDPGSLLSLFRRLSDQRSKERSLLHGDFHAFSAGPGLFSYIRHWDQNERFLVVLNFGDVGLSAGLQASDLPASASLPAKADLLLSTQPGREEGSPLELERLKLEPHEGLLLRFPYAA
oligomerisation [1]: decreases | oligomerisation [2]: decreases
